The source of these data is PMC3409459, “Absorption, distribution, metabolism and excretion of peginesatide, a novel erythropoiesis-stimulating agent, in rats” (Xenobiotica; the Fate of Foreign Compounds in Biological …, 2011).

Data set [1] can be described thus: Quantitative whole body autoradiography (QWBA) tissue distribution. It counts as in vivo, male Sprague-Dawley rats. Particulars: for the radiolabel distribution and QWBA studies. How it is done:
Tissue distribution of radioactivity was assessed by quantitative whole-body autoradiography (QWBA) in addition to determination of radioactivity tissue levels by LSC. At various time points following the administration of the desired QWBA target dose of 100 uCi/kg [^14C]-peginesatide, equating to a 17mg/kg dose of peginesatide, the rats were anesthetized with isoflurane and blood (−3-4 mL) was collected via cardiac puncture. Anesthetized rats were sacrificed by immersion in a hexane dryicebath. Carcasseswere embedded in 2% carboxymethylceilulose over solid CO2 to ensure the block was retained frozen, and then stored at −20°C until sectioning. In addition, ^14C radioactivity standards were embedded with each carcass to provide a context for quantification and for quality control purposes.
Samples were sectioned onto adhesive tape (Nakagawa NA-70 MAG, Japan) at five levels of interest in the sagittal plane, with all major tissues, organs, and biological fluids represented. […] To quantitate radioactivity in tissues, a calibration standard curve was constructed using American Radiolabeled Chemicals, Inc ARC 146 standards. The autoradiographic image data for the calibration standards and specified tissues, organs, and fluids were quantified using Imaging Research Inc. AIS software. […]

For data set [2] the following is noted: ref Fan et al. 2006; cited from earlier work. How it is done:
Multiple clearance mechanisms may be involved with peginesatide as clearance involves glomerular filtration; a presumably non-saturable elimination. […] High concentrations of radioactivity were also measured in the liver. In addition, negligible excretion (<0.1%) of the radiolabel was d ...

Data set [3] is described as follows: Plasma pharmacokinetics of unlabeled peginesatide after a single IV dose (ELISA). The format is in vivo, male Sprague-Dawley rats. Particulars: for time for which plasma concentrations were quantifiable: LLOQ 40 ng/mL; for AUC0–t / CL / t½ / Cmax: plasma, mean (SD), n=3; for Cmax: value at 0.25 h. The method, then: Plasma samples were analyzed for peginesatide concentration using a competition enzyme linked immunosorbent assay (ELISA) as previously described ([Fan et al. 2006]). The capture anti-peginesatide antibody was a high affinity polyclonal antibody preparation directed against the peptidic part of the molecule so the assay detects mono- and di-PEG-conjugated peptide as well as free peptide. The lower limit of quantitation was 40 ng-mL^1, the intra assay precision (% coefficient of variation) was 5-10% and the intra assay accuracy (% bias) was 1.9-5.7%.
The PK of peginesatide was assessed in male Sprague-Dawley rats following the administration of unlabeled and radiolabeled test article. The linearity of the PK profile was evaluated in rats (n = 3/group) administered a single IV dose of peginesatide at 0.1, 0.5, or 5 mg·kg^−1. Blood samples were collected predose and 0.25,1, 6, and 24h, and 2,3, 5, 7,10,14,17, 21, 24, and 28 days following dosing. Samples were analyzed by ELISA.
Noncompartmental PK parameters for peginesatide and metabolites were generated using WinNonlin ver. 4.0, Pharsight Corporation (Mountain View, CA). The maximum plasma concentration (Cmax) and their times of occurrence (tmax) were obtained directly from the mean plasma concentration vs. time profiles. The areas under the plasma concentration-time curves […] were estimated by the linear trapezoidal rule - by adding all the area portions under the curve from time zero to the time of the last observed plasma concentration (tn). Elimination rate constants (kz) were estimated by fitting a linear regression of log mean concentration against time data in the terminal exponential phase (at least 3 data points). Apparent terminal half-life (t1/2) was calculated as In2/λz. The AUC0-inf was calculated as the sum of AUC0-t and Cobs/λz, where Cobs, was the actual concentration at the time of the last quantifiable concentration. The plasma clearance (CL) for peginesatide was estimated as the ratio of dose/ AUC0-inf. The mean residence time (MRT) was calculated as the ratio of AUMC0-inf/AUC0-inf, where AUMC0-inf was the area under the first moment curve from the time zero to infinity. The volume of distribution at steady state (Vss) was estimated as CL x MRT.

Consider Peginesatide, for which the “bone marrow to bone ratios” value in data set [1] is reported as 11-25. For the same substance, the “clearance in a rat chronic renal insufficiency model compared to a rat with normal renal function” value in data set [2] was “twofold lower clearance”. Further, in data set [3] (0.1 mg·kg^−1 IV), the “time for which plasma concentrations were quantifiable” value is 3 days, the “AUC0–t” value was 60.3 (4.71) μg·h/mL, the CL is 1.65 (0.13) mL/h/kg and the t½ is on record as 17.5 (0.3) h. Moreover, the Cmax in data set [3] (0.1 mg·kg^−1 IV) is 2.56 (0.162) μg/mL. For the same substance, in data set [3] (0.5 mg·kg^−1 IV), the “AUC0–t” value was 388 (48.8) μg·h/mL, the CL is 1.29 (0.18) mL/h/kg, the t½ is listed as 19.7 (2.6) h and the Cmax is listed as 13.5 (1.40) μg/mL. Also, in data set [3] (5 mg·kg^−1 IV), the “time for which plasma concentrations were quantifiable” value is listed as “up to 7 days”, the “AUC0–t” value was 5405 (327) μg·h/mL, the CL is 0.92 (0.06) mL/h/kg and the t½ is 31.6 (3.4) h. In data set [3] (5 mg·kg^−1 IV), the Cmax was 137 (6.19) μg/mL.
